The text below walks through data of PMC3483115 (The Journal of General Physiology, 2012).

This experiment has as its target calmodulin (CaM), wild type (UniProt P0DP23 1-149). Put plainly: SEC. In general terms: In gel filtration, larger molecules generally elute earlier.

B1: TRPV1-CT35 (TRPV1 C-terminal residues 767–801) (peptide)
chain: EGVKRTLSFSLRSGRVSGRNWKNFALVPLLRDAST
Turning to B1, the binding result is reported as “binds”.
